Results: patent US20190300618A1 (Merck Sharp & Dohme, published 2019)

T1: R10A
T1 construct: also called hCD27 R10A
T1 receptor: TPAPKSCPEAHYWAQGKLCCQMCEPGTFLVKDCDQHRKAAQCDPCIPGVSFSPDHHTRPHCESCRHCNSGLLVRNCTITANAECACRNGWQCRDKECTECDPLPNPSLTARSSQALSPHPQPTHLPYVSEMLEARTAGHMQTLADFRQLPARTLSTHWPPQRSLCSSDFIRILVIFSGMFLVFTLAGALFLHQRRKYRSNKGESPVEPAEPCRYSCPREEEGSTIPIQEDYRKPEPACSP

T2: K38A
T2 construct: also called hCD27 K38A
T2 receptor: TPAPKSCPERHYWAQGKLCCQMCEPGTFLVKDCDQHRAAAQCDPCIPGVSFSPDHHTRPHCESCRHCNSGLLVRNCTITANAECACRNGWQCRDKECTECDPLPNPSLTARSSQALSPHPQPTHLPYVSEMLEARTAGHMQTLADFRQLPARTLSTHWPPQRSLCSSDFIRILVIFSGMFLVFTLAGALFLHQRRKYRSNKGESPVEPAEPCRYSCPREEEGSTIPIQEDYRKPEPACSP


Tests used:
[1] = biological target: human CD27 (wild type), expressed on cells (human) (UniProt P26842); test: competition cell ELISA on CHO-hCD27; competitor detected: mouse hCD27.15 at 1 µg/ml
[2] = biological target: Macaca mulatta CD27 (mmCD27), expressed on cells (Macaca mulatta (rhesus); same entry given for cynomolgus monkey); test: flow cytometry MFI on CD4+ T cells from rhesus peripheral blood
[3] = biological target: human CD27 (wild type), expressed on cells (human) (UniProt P26842); test: flow cytometry on primary T cells
R10A = biological target: T1, R10A; test: flow cytometry, CHO-K1; single column;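 note: CHO-K1 cells transiently transfected with hCD27 alanine mutant constructs, anti-hCD27 antibody binding measured by flow cytometry, 30 min at 4 °C, wild-type hCD27 binding taken as 100%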
Protocol: (§1) The ability of several anti-hCD27 antibodies to bind to a series of hCD27 alanine mutants was determined using CHO-K1 cells, transiently transfected pCI-neo empty vector, pCI-neo.hCD27 and several pCI-neo.CD27Ala mutant constructs.
(§2) Detached cells were transferred to 96 wells round-bottomed well plates at approximately 1.2×10⁵ cells/well. After spinning down the cells, discarding the supernatants and re-suspending the cells in the residual volume, the primary antibodies were added and incubated for 30 minutes at 4° C. Cells were washed three times with DPBS/BSA 1%, followed by centrifugation, discarding of the supernatants and re-suspension in the residual volume. […] After washing once, antibody binding was detected using the HTS plate reader (FACS Canto II) and FlowJo software for data analysis. Debris, dead cells and doublets were excluded from the analysis. Binding was expressed as the geometric mean of the FITC signal, relative to antibody binding to hCD27, which was set at 100%.

K38A = biological target: T2, K38A; test: flow cytometry, CHO-K1; single column;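 note: CHO-K1 cells transiently transfected with hCD27 alanine mutant constructs, anti-hCD27 antibody binding measured by flow cytometry, 30 min at 4 °C, wild-type hCD27 binding taken as 100%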
Protocol: as §1, §2

IC50 (read off the curve) [1] [nM]	EC50 [2] [nM]	fold higher EC50 compared to 131AVH6VL6-hIgG1 [3] [fold]	% of WT hCD27 binding (geo mean FITC) (R10A) [%]	% of WT hCD27 binding (geo mean FITC) (K38A) [%]	Molecule
4	1.58	5			1F5 hIgG1 (antibody)
			58.9	97.6	hCD27.15-6B (humanized hCD27.15, human IgG4, Clone 6B) (antibody, V domains shown, humanized version of hCD27.15 from WO2012/004367 with identical CDR regions; also called hCD27.15 (humanized 6B); hCD27.15 6B humanized antibody) VH: QVQLVQSGAEVKKPGASVKVSCKASGFIIKATYMHWVRQAPGQRLEWMGRIDPANGETKYDPKFQVRVTITADTSASTAYMELSSLRSEDTAVYYCARYAWYFDVWGQGTLVTVSS VL: DIQMTQSPSSLSASVGDRVTITCRASENIYSFLAWYQQKPGKAPKLLIYHAKTLAEGVTSRFSGSGSGTDFTLTISSLQPEDSATYYCQHYYGSPLTFGQGTRLEIKR
